Patent US20260209386A1 (MYTHIC THERAPEUTICS, published 2026)
Residue numbers refer to the chain shown, from its start.

T1: Human PTK7 Protein, His Tag, Acro Biosystems (human, UniProt Q13308 31-704)
T1 construct: Bought recombinant protein; also called CCK4; not shown: His tag
T1 sequence: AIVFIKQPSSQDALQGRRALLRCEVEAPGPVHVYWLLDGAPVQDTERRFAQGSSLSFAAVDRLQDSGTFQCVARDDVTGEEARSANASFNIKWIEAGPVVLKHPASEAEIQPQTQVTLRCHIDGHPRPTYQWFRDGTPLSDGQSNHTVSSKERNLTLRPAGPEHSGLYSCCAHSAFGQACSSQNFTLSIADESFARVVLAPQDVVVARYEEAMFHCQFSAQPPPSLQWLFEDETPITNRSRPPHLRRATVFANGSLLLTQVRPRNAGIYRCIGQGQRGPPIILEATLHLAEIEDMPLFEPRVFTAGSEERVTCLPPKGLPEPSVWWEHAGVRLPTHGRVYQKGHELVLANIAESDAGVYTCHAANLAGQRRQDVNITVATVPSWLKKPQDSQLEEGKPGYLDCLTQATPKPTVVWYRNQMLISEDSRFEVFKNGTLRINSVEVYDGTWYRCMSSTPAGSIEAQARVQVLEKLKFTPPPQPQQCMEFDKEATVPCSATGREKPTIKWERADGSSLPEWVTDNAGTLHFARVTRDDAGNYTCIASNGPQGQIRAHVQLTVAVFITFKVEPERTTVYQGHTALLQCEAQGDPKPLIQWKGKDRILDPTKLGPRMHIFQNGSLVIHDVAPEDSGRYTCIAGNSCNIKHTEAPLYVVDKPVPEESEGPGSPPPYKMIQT

B1: MYT11119 (antibody, V domains shown)
VH: EVQLVESGGGLVQPGGSLRLSCTASGFSLSTYAMSWVRQAPGKGLEWVGMIYINDNHYYASWAKGRFTISRDTSKNTVYLQMNSLRAEDTAVYFCARDIGISYYIGVSLWGQGTLVTVSS
VL: EIVMTQSPSTLSASVGDRVIITCQASQSIGTRLSWYQQKPGKAPKLLIYGASKLATGVPSRFSGSGSGAEFTLTISSLQPDDFATYYCLGEYSYTTTDGIAFGQGTKLTVL
notes: MYT9412 HC variant
B2: MYT11121 (antibody, V domains shown)
VH: B1 VH with H57T, Y59H
VL: B1 VL
notes: MYT9412 HC variant
B3: MYT11122 (antibody, V domains shown)
VH: B1 VH with H57T, A60H
VL: B1 VL
notes: MYT9412 HC variant
B4: MYT11123 (antibody, V domains shown)
VH: B1 VH with H57T, S61H
VL: B1 VL
notes: MYT9412 HC variant
B5: MYT11124 (antibody, V domains shown)
VH: B1 VH with H57T, W62H
VL: B1 VL
notes: MYT9412 HC variant
B6: MYT11125 (antibody, V domains shown)
VH: B1 VH with H57T, A63H
VL: B1 VL
notes: MYT9412 HC variant
B7: MYT11126 (antibody, V domains shown)
VH: B1 VH with H57T, K64H
VL: B1 VL
notes: MYT9412 HC variant
B8: MYT11127 (antibody, V domains shown)
VH: B1 VH with H57T, G65H
VL: B1 VL
notes: MYT9412 HC variant
B9: MYT11129 (antibody, V domains shown)
VH: B1 VH with H57T, R97H
VL: B1 VL
notes: MYT9412 HC variant
B10: MYT11135 (antibody, V domains shown)
VH: B1 VH with H57T, Y103H
VL: B1 VL
notes: MYT9412 HC variant
B11: MYT11138 (antibody, V domains shown)
VH: B1 VH with H57T, G106H
VL: B1 VL
notes: MYT9412 HC variant
B12: MYT11139 (antibody, V domains shown)
VH: B1 VH with H57T, V107H
VL: B1 VL
notes: MYT9412 HC variant
B13: MYT11140 (antibody, V domains shown)
VH: B1 VH with H57T, S108H
VL: B1 VL
notes: MYT9412 HC variant
B14: MYT11141 (antibody, V domains shown)
VH: B1 VH with H57T, L109H
VL: B1 VL
notes: MYT9412 HC variant
B15: MYT11145 (antibody, V domains shown)
VH: B1 VH with H57T
VL: B1 VL with Q24H
notes: MYT9412 LC variant
B16: MYT11147 (antibody, V domains shown)
VH: B1 VH with H57T
VL: B1 VL with S26H
notes: MYT9412 LC variant
B17: MYT11148 (antibody, V domains shown)
VH: B1 VH with H57T
VL: B1 VL with Q27H
notes: MYT9412 LC variant
B18: MYT11149 (antibody, V domains shown)
VH: B1 VH with H57T
VL: B1 VL with S28H
notes: MYT9412 LC variant

These binders were tested against T1, Human PTK7 Protein, His Tag, Acro … (assay: BLI, anti-human Fc capture, 50 nM PTK7; 2 = substantially similar binding relative to parent).

| Binder | binding result |
| --- | --- |
| B1 | binds |
| B2 | binds |
| B3 | binds |
| B4 | binds |
| B5 | binds |
| B6 | binds |
| B7 | binds |
| B8 | binds |
| B9 | binds |
| B10 | binds |
| B11 | binds |
| B12 | binds |
| B13 | binds |
| B14 | binds |
| B15 | binds |
| B16 | binds |
| B17 | binds |
| B18 | binds |
